{"source": "patent US9315793B2", "about": "“Enzymes that synthesize zingiberene” (Board of Trustees of Michigan State University, priority 2011, dated 2016)", "assay": "Substrate specificity of recombinant LA2167-ZIS (GPP, NPP, EE-FPP or 2Z,6Z-FPP), GC-MS of products", "assay_type": "biochemical, Solanum habrochaites", "conditions": "for substrate giving zingiberene (substrate specificity): no substrate, GPP, NPP, 2Z,6Z-FPP and E,E-FPP compared", "method": "The synthetic gene was excised from the pUC57 cloning vector by digestion with BamHI and SalI and ligated into the pHIS8 vector previously linearized by digestion with the same enzymes. Recombinant clones were transformed into E. coli BL21 cells. A 5-mL log-phase culture of E. coli BL21 cells containing the expression vector was induced by addition of IPTG to a final concentration of 0.1 mM. The induced cells were incubated with agitation at 25° C. for 16 h, and then harvested by centrifugation at 10,000 g for 15 min. The cell pellet was resuspended in 1 mL extraction buffer (50 mM HEPES pH 8, 5% glycerol, 100 mM KCl, 7.5 mM MgCl2 containing 1 mM dithiothreitol (DTT)) prior to sonication. Soluble proteins were harvested after centrifugation at 10,000 g for 20 min. The supernatant was used for subsequent enzyme assays. Two micrograms of soluble protein were mixed with 10 μM of substrate (GPP, NPP, EE-FPP or 2Z,6Z-FPP (Echelon Biosciences Inc., Salt Lake City, Utah)) in a 2-mL glass vial. Reactions were allowed to proceed for 30 min at 30° C., and the glass vial headspace was collected with a 65 μm polydimethylsiloxane-divinylbenzene solid-phase microextraction fiber (Supelco, Bellefonte, Pa.). After 5 min of exposure at 42° C., the SPME fiber was retracted and transferred to the GC injector port for desorption at 200° C. onto the GC column for 3 min. The terpenes were separated on a DB5 column (10 m length, inner diameter and 0.25 um). The GC-MS analysis was performed as described previously […] et al. (Plant Physiol 153, 1212-1223 (2010)).", "data": [{"molecule": "LA2167-ZIS: sesquiterpene (zingiberene) synthase of Solanum habrochaites accession LA2167, SEQ ID NO:2; codon-optimized form lacking chloroplast transit sequence SEQ ID NO:4 (protein, Solanum habrochaites) MIVGYRSTIITLSHPKLGNGKTISSNAIFRRSCRVRCSHSTPSSMNGFEDARDRIRESFGKVELSPSSYDTAWVAMVPSKHSLNEPCFPQCLDWIIENQREDGSWGLNPSHPLLLKDSLSSTLACLLALTKWRVGDEQIKRGLGFIETQSWAIDNKDQISPLGFEIIFPSMIKSAEKLNLNLAINKRDSTIKRALQNEFTRNIEYMSEGFGELCDWKEIIKLHQRQNGSLFDSPATTAAALIYHQHDKKCYEYLNSILQQHKNWVPTMYPTKIHSLLCLVDTLQNLGVHRHFKSEIKKALDEIYRLWQQKNEEIFSNVTHCAMAFRLLRISYYDVSSDELAEFVDEEHFFATSGKYTSHVEILELHKASQLAIDHEKDDILDKINNWTRTFMEQKLLNNGFIDRMSKKEVELALRNFYIISDLAENRRYIKSYEENNFKILKAAYRSPNINNKDLFIFSIRDFELCQAQHQEELQQLKRWFEDCRLDQLGLSEQFISASYLCAIPIVPGPELSDARLVYAKYVMLLTIVDDHFESFASTDECLNIIELVERWDDYASVGYKSERVKVLFSMFYKSIEEIATIAEIKQGRSVKNHLINLWLKVMKLMLMERVEWCSGKTIPRIEEYLYVSSITFGSRLIPLTTQYFIGIKISKDLLESDEIYGLCNFTGIVLRLLNDLQDSKREQKEGSINLVTLLMKSISEEEAIMKMKEILEMKRRELFKMVLVQKKGSQLPQLCKEIFWRTCKWAHFTYSQTDRYRFPEEMENHIDEVFYKPLNH", "values": [{"measurement": "product synthesis with geranyl diphosphate (GPP) as substrate", "setting": "GPP supplied as substrate", "value": "failed to synthesize any products"}, {"measurement": "product synthesis with neryl diphosphate (NPP) as substrate", "setting": "NPP supplied as substrate", "value": "failed to synthesize any products"}, {"measurement": "substrate giving zingiberene (substrate specificity)", "value": "only observed when 2Z,6Z-farnesyl diphosphate is used as substrate"}, {"measurement": "substrate giving zingiberene (substrate specificity)", "setting": "listed as zingiberene synthase from accession LA2167", "value": "only uses 2Z,6Z-farnesyl diphosphate"}]}]}
